Data on two molecules can be found in PMC4278905, “Differential Binding of Lef1 and Msx1/2 Transcription Factors to Dkk1 CNEs Correlates with Reporter Gene Expression In Vivo”.

In this data set the target is Lef1 (UniProt P27782 1-397). As to the kind of experiment: EMSA; 100 ng Lef1, 5 mM Mg2+, 1 ug poly(dI-dC); 20 mM Hepes pH 7.9, 60 mM KCl, 1 mM EDTA, 1 mM DTT, 5 mM MgCl2, 10% glycerol, 1 ug poly(dI-dC), 30 min on ice; 5% native PAGE, 0.5x TBE, 4 C. The following applies: protein: recombinant; tags: GST removed by thrombin (pGEX4T-1); label: 32P (T4 PNK, 5' end); blunt. (In EMSA bound probe runs differently from free probe, usually more slowly.)
Sequence of Lef1 (P27782 whole entry): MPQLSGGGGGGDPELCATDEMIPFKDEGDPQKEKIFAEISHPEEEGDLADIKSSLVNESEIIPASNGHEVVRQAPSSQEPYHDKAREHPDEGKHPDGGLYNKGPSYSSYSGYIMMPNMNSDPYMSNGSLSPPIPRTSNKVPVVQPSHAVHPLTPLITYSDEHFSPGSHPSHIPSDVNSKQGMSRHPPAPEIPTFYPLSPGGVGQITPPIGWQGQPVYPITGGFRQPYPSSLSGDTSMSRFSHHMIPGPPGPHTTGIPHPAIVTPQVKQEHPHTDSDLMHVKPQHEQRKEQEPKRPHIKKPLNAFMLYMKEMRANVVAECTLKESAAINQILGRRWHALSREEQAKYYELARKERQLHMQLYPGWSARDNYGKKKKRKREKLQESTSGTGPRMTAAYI

B1: CNE195Mut(TCF/Lef) (dsDNA)
DNA 1: ATGAATGAAACTTGAATTCGCAAGGGTCA
DNA 2: TGACCCTTGCGAATTCAAGTTTCATTCAT
As to B1, the binding result is reported as “no binding”.

B2: CNE195 Tcf/Lef (dsDNA)
DNA 1: ATGAATGAAACTTCAAAGGGCAAGGGTCA
DNA 2: TGACCCTTGCCCTTTGAAGTTTCATTCAT
B2: the binding result is recorded as “binds”.
